The values below come from patent US20090202547A1 (FIBRON, published 2009).

For assay [1], the target named is T1, FR3exFc (human).
T1 construct: also called FGFR3/Fc; FR3/Fc
The assay is described as follows: ELISA, FGFR3/Fc anchored on anti-human Fc coated wells, about 5 µg Fab per well (labelled with cold iodine at 0.04 mM NaI), detection with anti-human Fab; parallel wells without FR3/Fc. The protocol:
To determine the effect of iodination on Fab activity, 50 μg of MSPRO29 was first labeled with cold iodine using Pierce IodoGen coated tubes. The process was carried out either without iodine, with 0.04 mM NaI (low I) or with 1 mM NaI (high I). MSPRO29 was then purified through a SEPHADEX® G-50 column. The ability of the modified Fab to bind FGFR3 was determined by ELISA. MAXISORP® wells were coated with anti-human Fc. FGFR3/Fc was then anchored to the wells. In parallel, a similar set of wells was left in blocking buffer only (no FR3/Fc, hatched bars). The unmodified (no I) or the modified MSPRO29 (low or high, 2 G-50 fractions each, 1 and 2) were added at approximately 5 μg/well and binding was measured with anti-human Fab. Fresh MSPRO29 and buffer alone were included as controls (FIG. 14: FGFR3/Fc, checkered bars; no FGFR3/Fc, hatched bars). MS-PRO29 was labeled with 1 mCi ¹²⁵I. The specific activity of the Fab was 17 μCi/μg.
In general terms: An ELISA detects its analyte on a solid surface through an enzyme-linked reagent.

Assay [2] concerns the target T2, FGFR3 (wild type) on cells (human, UniProt P22607 23-806). The assay is described as follows: cell-based or functional assay.
For assay [3], the target named is T1, FR3exFc. The assay is described as follows: BIACORE, FGFR3 captured on an anti-Fc chip. The protocol: (§1) The affinity measurements were performed by BIACORE® analysis according to the standard procedure recommended by the supplier (Pharmacia). The anti-Fc antibody was coupled via the EDC/NHS chemistry to the chip and subsequently FGFR3 was captured. The Fabs of the invention were then bound to this surface.
In general terms: Surface plasmon resonance follows binding to a sensor surface in real time, without labels.

Assay [4] deals with T1, FR3exFc. The assay is described as follows: BIACORE, FGFR3 captured on an anti-Fc chip. How it is done:
as §1
This is another data set of the same source.

In assay [5] the target is T2, FGFR3 (wild type) on cells. Description: cell-based or functional assay. The source holds these as a separate data set.
Assay [6] has as its target T2, FGFR3 (wild type) on cells. The assay is described as follows: cell-based or functional assay. The source holds these as a separate data set.
Assay [7] addresses T2, FGFR3 (wild type) on cells. The assay is described as follows: FACS. (In general: In flow cytometry, cells or beads pass a laser one at a time.)
Assay [8] addresses T1, FR3exFc. Description: BIAcore; number in parentheses taken as the monomeric Fab; monomeric Fab, not miniantibody.
The target of assay [9] is T2, FGFR3 (wild type) on cells. The assay is described as follows: indirect FACS-Scatchard.
Assay [10] deals with T1, FR3exFc. The assay is described as follows: BIACORE. The protocol: as §1
The target of assay [11] is T1, FR3exFc. The assay is described as follows: BIAcore; number in parentheses taken as the monomeric Fab; monomeric Fab, value in parentheses of Table 1E (Tables 1C and 5 give 9 nM).
The next assay addresses T3, hFR3^D2Fc (human, UniProt P22607 143-250).
T3 construct: Only domain 2 of the entry stood in the assay; also called product of pChFR3^D2Fc; not shown: human Fc
T3 sequence: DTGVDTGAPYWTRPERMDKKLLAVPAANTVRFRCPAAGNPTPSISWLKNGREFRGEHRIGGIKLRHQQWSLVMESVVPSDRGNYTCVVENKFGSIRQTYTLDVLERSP
The assay is described as follows: ELISA, Fc fusion anchored on an anti-human Fc coated plate, bound Fab detected with HRP anti-human Fab. From the text:
Constructs comprising cDNAs that code for segments of the extracellular domain of FGFR3 were generated (FIG. 10). D2 comprises Ig domain 2, D2-3 comprises Ig domains 2 and 3, and D1-3 comprises Ig domains 1, 2 and 3. These constructs include pChFR3^D2Fc that codes for Ig-like domain 2 of FGFR3 and pChFR3^{D2,3}Fc that codes for domain 2 and 3, both as human Fc fusions. The corresponding chimeric proteins, as well as the control hFR3exFc (containing domains 1, 2 and 3) were anchored to an ELISA plate coated with a human Fc antibody. A panel of 8 best Fabs, MSPRO2, 11, 12, 21, 24, 26, 28 and 29, were added, and bound Fab was determined with HRP-α human Fab (FIG. 11). […] Both bind to the Ig like domain 2 while the others require domain 3 for binding. It was then tested whether or not Fabs that belong to the second group would distinguish the FGFR3IIIc isoform from the FGFRIIIb from. FDCP-FR3IIIb or FDCP-FR3IIIc cells were incubated in the presence of 1.25 ng/ml FGF9 with increasing doses of either MSPRO12 or MSPRO29. Ly6.3 was included as control. After 2 days in culture, cell proliferation was measured with the XTT reagent. Clearly, MSPRO29 (open triangle) was completely ineffective against the IIIb isoform (FIG. 12).

Assay [12] concerns the target T2, FGFR3 (wild type) on cells. Description: indirect FACS-Scatchard; indirect FACS-Scatchard, Table 5 (Table 1C gives 1.1 nM).

T1 sequence (chain, as listed by the source limits assumed): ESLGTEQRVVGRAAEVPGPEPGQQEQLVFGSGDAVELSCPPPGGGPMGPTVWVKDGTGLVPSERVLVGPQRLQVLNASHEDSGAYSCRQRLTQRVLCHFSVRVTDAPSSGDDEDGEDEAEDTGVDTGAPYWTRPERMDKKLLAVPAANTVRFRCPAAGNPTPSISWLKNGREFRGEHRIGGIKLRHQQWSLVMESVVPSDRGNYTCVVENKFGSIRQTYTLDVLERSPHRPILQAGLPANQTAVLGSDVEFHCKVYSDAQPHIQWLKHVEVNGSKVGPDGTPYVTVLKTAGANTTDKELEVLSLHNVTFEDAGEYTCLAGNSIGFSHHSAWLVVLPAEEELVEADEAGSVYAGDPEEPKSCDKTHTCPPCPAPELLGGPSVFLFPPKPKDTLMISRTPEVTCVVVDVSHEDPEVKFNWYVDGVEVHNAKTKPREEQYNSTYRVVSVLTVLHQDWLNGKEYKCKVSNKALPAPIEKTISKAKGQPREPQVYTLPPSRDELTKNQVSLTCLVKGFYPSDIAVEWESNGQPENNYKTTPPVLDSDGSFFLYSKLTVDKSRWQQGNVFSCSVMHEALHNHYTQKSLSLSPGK
T2 sequence (P22607 23-806 limits assumed): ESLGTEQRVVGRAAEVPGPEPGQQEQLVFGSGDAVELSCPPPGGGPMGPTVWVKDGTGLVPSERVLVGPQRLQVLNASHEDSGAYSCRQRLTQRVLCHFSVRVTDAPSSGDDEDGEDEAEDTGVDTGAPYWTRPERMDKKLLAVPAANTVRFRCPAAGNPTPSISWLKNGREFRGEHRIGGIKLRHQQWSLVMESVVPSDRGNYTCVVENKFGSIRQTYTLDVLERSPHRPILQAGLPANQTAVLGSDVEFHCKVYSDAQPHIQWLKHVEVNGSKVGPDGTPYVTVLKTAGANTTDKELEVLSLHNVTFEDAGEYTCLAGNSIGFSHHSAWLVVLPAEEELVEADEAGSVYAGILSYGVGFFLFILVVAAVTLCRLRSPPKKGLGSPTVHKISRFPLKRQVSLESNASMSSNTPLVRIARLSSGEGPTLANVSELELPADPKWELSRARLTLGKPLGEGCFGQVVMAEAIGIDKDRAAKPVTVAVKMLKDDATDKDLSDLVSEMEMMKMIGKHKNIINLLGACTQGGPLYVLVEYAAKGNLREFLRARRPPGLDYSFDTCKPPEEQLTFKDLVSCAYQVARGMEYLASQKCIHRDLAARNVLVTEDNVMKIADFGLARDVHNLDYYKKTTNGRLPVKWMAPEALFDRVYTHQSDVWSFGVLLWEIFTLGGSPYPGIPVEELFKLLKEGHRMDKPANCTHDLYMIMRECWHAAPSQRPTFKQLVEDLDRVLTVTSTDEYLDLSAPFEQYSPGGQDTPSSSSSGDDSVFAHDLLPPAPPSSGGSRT

B1: iodinated MSPRO29 (Fab, V domains shown)
VH: QVQLVQSGAEVKKPGASVKVSCKASGYTFTSYYMHWVRQAPGQGLEWMGWINPNSGGTNYAQKFQGRVTMTRDTSISTAYMELSSLRSEDTAVYYCARTWQYSYFYYLDGGYYFDIWGQGTLVTVSS
VL: DIVLTQSPATLSLSPGERATLSCRASQSVSSSYLAWYQQKPGQAPRLLIYGASSRATGVPARFSGSGSGTDFTLTISSLEPEDFATYYCQQTNNAPVTFGQGTKVEIKR
modifications: iodinated with IodoGen (cold NaI at 0.04 mM or 1 mM, or 125I); sites not stated
notes: MSPRO29 Fab after iodination; which preparation (low I, high I, 125I) is told in each row; also called modified MSPRO29 (low I; high I)
With B1, in the assay with FR3exFc [1], the binding result is recorded as “binds”.

B2: MSPRO2 (Fab, V domains shown)
VH: QVQLVQSGAEVKKPGASVKVSCKASGYTFTSYYMHWVRQAPGQGLEWMGWINPNSGGTNYAQKFQGRVTMTRDTSISTAYMELSSLRSEDTAVYYCARDFLGYEFDYWGQGTLVTVSS
VL: DIELTQPPSVSVAPGQTARISCSGDALGDKYASWYQQKPGQAPVLVIYDDSDRPSGIPERFSGSNSGNTATLTISGTQAEDEADYYCQSYDYSADYVFGGGTKLTVLG
In general, Kd refers to the constant that tells how readily two partners part at equilibrium. The koff is the first-order rate constant of dissociation. Regarding B2, the “IC50 FR3 (FGF9), FDCP-FGFR3 proliferation assay” value in [2] is 360 nM. Also, the Kd in the assay with FR3exFc [3] was 37 nM; with FR3exFc [4], 37 nM; in assay [7], 43 nM; with FR3exFc [8], 37 nM; in [9], 43 nM. Besides, the “IC50, FDCP-FGFR3 proliferation assay with FGF9, monomeric Fab (in parentheses)” value in assay [5] is 360 nM. Further, in [6], the “IC50 of inhibition of FDCP-FR3 proliferation with FGF9 (XTT)” value is roughly 1 µg/mL. The molecule also displayed a koff with FR3exFc [10] of 0.02 s⁻¹.

B3: MSPRO21 (Fab, V domains shown)
VH: QVQLVQSGAEVKKPGSSVKVSCKASGGTFSSYAISWVRQAPGQGLEWMGGIIPIFGTANYAQKFQGRVTITADESTSTAYMELSSLRSEDTAVYYCARDNWFKPFSDVWGQGTLVTVSS
VL: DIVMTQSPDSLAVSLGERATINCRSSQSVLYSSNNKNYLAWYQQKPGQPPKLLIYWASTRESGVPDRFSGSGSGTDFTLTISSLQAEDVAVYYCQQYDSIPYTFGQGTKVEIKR
For B3, the Kd came out at 4.1 nM with FR3exFc [11]; 9 nM with FR3exFc [3]; 9 nM with FR3exFc [4]; 0.6 nM in [12]; 1.1 nM in assay [7]. In addition, in assay [2], the “IC50 FR3 (FGF9), FDCP-FGFR3 proliferation assay” value was found to be 50 nM. Further, in the assay with hFR3^D2Fc, the binding result was “no binding”. Besides, the “IC50, FDCP-FGFR3 proliferation assay with FGF9, monomeric Fab (in parentheses)” value in assay [5] stood at 50 nM. The molecule further yielded a koff with FR3exFc [10] of 0.0036 s⁻¹.
